According to the Human Domainome abundance scans (Beltran et al. 2025):
± gives the uncertainty stated by the source.

B1: Transcription elongation factor A N-terminal and central domain-containing protein, residues 30 to 77; numbered along this chain, Q8N8B7 (parent)
chain: LTELETIYVTKEHLQETDVVRAVYRVLKNCPSVALKKKAKCLLSKWKA

Variants of: B1
Assay: abundance fitness (aPCA) (normalised: wild type 0, dead -1); higher = more abundant; growth selection in yeast, the domain comes from the species named
Settings: Homo sapiens

Variant	abundance fitness
Y24M	0.315 ± 0.075
Y24K	0.219 ± 0.095
K28W	0.04 ± 0.092
K28S	-0.368 ± 0.1
K28V	-0.142 ± 0.073
E3F	0.477 ± 0.16
E3R	-0.24 ± 0.083
E3I	-0.112 ± 0.26
L27I	-0.053 ± 0.14
L27T	-0.883 ± 0.14
L27N	-0.846 ± 0.26
L27W	-0.031 ± 0.1
L27R	-0.848 ± 0.1
L27S	-0.966 ± 0.15
V33L	0.174 ± 0.087
V33M	-0.027 ± 0.1
V33H	-0.527 ± 0.2
W46Q	-0.792 ± 0.23
W46D	-1.05 ± 0.21
K38G	-0.209 ± 0.074
K38R	-0.061 ± 0.077
K38H	-0.529 ± 0.14
Y8N	-0.043 ± 0.26
D18L	-0.077 ± 0.097

Variant	abundance fitness
D18H	0.049 ± 0.14
D18E	-0.382 ± 0.1
D18S	0.353 ± 0.084
L35F	-0.293 ± 0.28
L42N	-0.871 ± 0.26
L42K	-1.13 ± 0.23
L42M	-0.203 ± 0.17
L42T	-0.703 ± 0.2
L42A	-0.689 ± 0.11
A48R	0.034 ± 0.37
A48P	-0.565 ± 0.22
E12R	-0.24 ± 0.079
E12P	-0.25 ± 0.17
E12I	-0.707 ± 0.15
R25G	-0.136 ± 0.08
R25T	-0.528 ± 0.13
R25V	-0.849 ± 0.13
R25P	-0.812 ± 0.18
R25F	-0.811 ± 0.23
R25N	-0.091 ± 0.13
V26W	0.447 ± 0.11
V26N	-0.152 ± 0.12
V26C	0.15 ± 0.12
V26M	0.206 ± 0.11

Variant	abundance fitness
S32H	0.131 ± 0.24
S32L	0.355 ± 0.089
S32D	-0.389 ± 0.27
S32T	-0.022 ± 0.094
L4D	0.257 ± 0.092
L4R	0.11 ± 0.058
L4S	0.216 ± 0.071
K47N	-0.625 ± 0.22
K47Q	-0.46 ± 0.2
K47E	-1.08 ± 0.35
N29Y	-0.466 ± 0.14
H13R	-0.126 ± 0.066
H13C	-0.224 ± 0.079
H13V	-0.698 ± 0.094
H13I	-0.668 ± 0.099
L1Y	-0.521 ± 0.21
L1C	-0.162 ± 0.15
L1R	-0.202 ± 0.33
L1G	0.363 ± 0.23
L1V	-0.379 ± 0.14
K36M	0.085 ± 0.1
K45G	-0.894 ± 0.12
K45A	-0.57 ± 0.11
K45C	-0.352 ± 0.14

Variant	abundance fitness
K45E	-0.748 ± 0.13
K45R	-0.123 ± 0.11
K45V	-0.918 ± 0.17
P31I	0.371 ± 0.085
P31T	0.341 ± 0.077
P31N	-0.016 ± 0.1
P31K	0.291 ± 0.092
I7W	-0.631 ± 0.12
I7G	0.224 ± 0.065
A39G	-0.576 ± 0.064
A39T	-0.512 ± 0.14
T10C	-0.566 ± 0.18
T10A	-0.017 ± 0.079
T10M	-0.143 ± 0.12
T10I	-0.657 ± 0.43
C30L	0.075 ± 0.086
C30G	0.012 ± 0.064
C30H	-0.743 ± 0.24
C30P	-0.244 ± 0.14
C30V	0.062 ± 0.08
C30Q	-0.189 ± 0.12
C30S	-0.514 ± 0.087
C41Q	0.293 ± 0.14
T2P	-0.629 ± 0.15

Variant	abundance fitness
T2I	-0.369 ± 0.13
E5K	-0.393 ± 0.13
E5G	-0.775 ± 0.089
E5V	-0.446 ± 0.1
E5L	-0.28 ± 0.08
R21K	-0.246 ± 0.16
R21E	-0.647 ± 0.3
R21W	-0.549 ± 0.14
S44I	-0.695 ± 0.28
S44V	-0.48 ± 0.11
S44Y	-0.398 ± 0.21
S44R	0.021 ± 0.086
S44H	0.079 ± 0.25
S44E	-0.262 ± 0.17
S44N	-0.351 ± 0.15
V19T	-0.347 ± 0.12
V19H	-0.454 ± 0.18
V19M	0.037 ± 0.14
V19A	-0.022 ± 0.11
V19G	-0.094 ± 0.082
V20T	-0.414 ± 0.24
V9H	0.107 ± 0.2
V9W	-0.277 ± 0.09
V9K	0.251 ± 0.12

Variant	abundance fitness
V9N	0.232 ± 0.12
V9D	0.276 ± 0.11
L43V	-0.272 ± 0.084
L43M	-0.138 ± 0.15
L43K	-1.04 ± 0.24
L43F	0.047 ± 0.12
T17A	-0.43 ± 0.12
T17P	0.057 ± 0.15
T17C	-0.103 ± 0.11
A22R	0.277 ± 0.066
A22Q	-0.082 ± 0.11
A22D	-0.209 ± 0.095
A22N	-0.099 ± 0.13
A22M	-0.053 ± 0.1
K37H	-0.609 ± 0.19
K37N	-0.155 ± 0.17
T6M	-0.107 ± 0.11
T6Q	0.08 ± 0.13
T6H	-0.147 ± 0.15
V23Q	-0.901 ± 0.16
V23H	-0.81 ± 0.21
Q15C	-0.002 ± 0.12
Q15P	0.134 ± 0.15
Q15H	-0.138 ± 0.17

Variant	abundance fitness
Q15T	-0.213 ± 0.12
Q15S	-0.208 ± 0.083
E16Q	0.285 ± 0.25
E16F	0.028 ± 0.14
E16D	0.043 ± 0.13
E16S	0.021 ± 0.093
E16M	0.041 ± 0.12
E16W	-0.414 ± 0.15
E16A	-0.017 ± 0.088
E16Y	-0.004 ± 0.12
L14K	0.23 ± 0.082
L14M	0.16 ± 0.082
L14A	0.241 ± 0.064
L14W	0.094 ± 0.06
K11T	-0.555 ± 0.17
K11L	-0.014 ± 0.079
K11Y	-0.599 ± 0.15
K11R	-0.348 ± 0.075
K11E	0.145 ± 0.089
A34E	-0.308 ± 0.1
A34V	-0.489 ± 0.096
A34Y	-0.174 ± 0.24
A34D	0.097 ± 0.13
